The assay concerns the target T1, human α2-polyHis-tag (human, UniProt Q96T91 24-129).
T1 construct: also called human α2 polypeptide; alpha-2; not shown: polyHis tag
T1 sequence (looked up): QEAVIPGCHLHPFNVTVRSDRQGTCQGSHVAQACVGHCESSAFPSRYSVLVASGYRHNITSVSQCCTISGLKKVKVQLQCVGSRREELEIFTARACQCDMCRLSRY
In words: heterodimerization assay: co-transfection, immunoprecipitation, Western blot. On the procedure:
A human α2-polyHis-tag mammalian expression vector and a human β10-FLAG-tag mammalian expression vector were co-transfected into 293 cells and serum free conditioned media was harvested after 72 hours. Immunoprecipitation was done using anti-FLAG M2-Agarose affinity beads (Cat# A1205, Sigma, St. Louis, Mo.). A Western blot of this immunoprecipitate was probed with affinity purified anti-α2 rabbit polyclonal antibodies (example 4) that had been conjugated to Horse Radish Peroxidase (Linx HRP Rapid Protein Conjugation Kit, cat# K8050-01, Invitrogen Corp., Carlsbad, Calif.). A strong α2-polyHis-tag band was observed using the ECL Western Blot detection kit (cat#RPN 2106, Amersham Pharmacia Biotech, Piscataway, N.J.). […] No α2-polyHis-tag band was observed if either of these 2 components was left out of the experiment or if plain agarose beads (i.e. without anti-FLAG antibodies) were used for the immunoprecipitation step.
On the technique in general: Immunoblotting shows a protein as a band on a membrane.

The results in this text go back to patent publication US20020015981A1 (Amgen, published 2002).

B1: human β10-FLAG-tag (ligand)
chain: ASSGNLRTFVGCAVREFTFLAKKPGCRGLRITTDACWGRCETWEKPILEPPYIEAHHRVCTYNETKQVTVKLPNCAPGVDPFYTYPVAIRCDCGACSTATTECETI
notes: Secreted from transfected 293 cells; the cleavage site is predicted, not determined; also called human β10 polypeptide; beta-10; not shown: FLAG tag
On to B1, for which the binding result is “binds”.
